Measurements reported in patent US20100105864A1, “PROPHYLACTIC OR THERAPEUTIC AGENT FOR DIARRHEA” (priority 2007, published 2010).
Starred links: 1 amine or outer side, 2 acyl side, 3 side chain; linkers in the order of their positions; H or OH if unused. Non-standard residues stand in square brackets, D forms with d. Residues, ends and D or L forms follow the SMILES beside them. Primed or numbered codes have the meaning given here. No end group written: not given here. *: point of attachment. GlyA = glycolic acid (-OCH2CO2H), esterified to the C-terminal carboxyl, O=C(O)CO*; GlyA″ = glycolic acid, ester to the C-terminal carboxyl, -OCH2CO2H, O=C(O)CO*; LacA″ = lactic acid residue, ester -OCH(CH3)CO2H at the C-terminus; Cys(S-allyl) = S-allylcysteine, C=CCSC[C@H](N[*:1])C(=O)[*:2]; Cys(S-Me) = S-methylcysteine, CSC[C@H](N[*:1])C(=O)[*:2]; γGlu = O=C(O)[C@H](CCC(=O)[*:2])N[*:1]; Tle = CC(C)(C)[C@H](N)C(=O)O; Orn = NCCC[C@H](N)C(=O)O; Abu = CC[C@H](N)C(=O)O; LacA = lactic acid

T1: human calcium receptor (human, UniProt P41180 20-1078)
T1 sequence (looked up): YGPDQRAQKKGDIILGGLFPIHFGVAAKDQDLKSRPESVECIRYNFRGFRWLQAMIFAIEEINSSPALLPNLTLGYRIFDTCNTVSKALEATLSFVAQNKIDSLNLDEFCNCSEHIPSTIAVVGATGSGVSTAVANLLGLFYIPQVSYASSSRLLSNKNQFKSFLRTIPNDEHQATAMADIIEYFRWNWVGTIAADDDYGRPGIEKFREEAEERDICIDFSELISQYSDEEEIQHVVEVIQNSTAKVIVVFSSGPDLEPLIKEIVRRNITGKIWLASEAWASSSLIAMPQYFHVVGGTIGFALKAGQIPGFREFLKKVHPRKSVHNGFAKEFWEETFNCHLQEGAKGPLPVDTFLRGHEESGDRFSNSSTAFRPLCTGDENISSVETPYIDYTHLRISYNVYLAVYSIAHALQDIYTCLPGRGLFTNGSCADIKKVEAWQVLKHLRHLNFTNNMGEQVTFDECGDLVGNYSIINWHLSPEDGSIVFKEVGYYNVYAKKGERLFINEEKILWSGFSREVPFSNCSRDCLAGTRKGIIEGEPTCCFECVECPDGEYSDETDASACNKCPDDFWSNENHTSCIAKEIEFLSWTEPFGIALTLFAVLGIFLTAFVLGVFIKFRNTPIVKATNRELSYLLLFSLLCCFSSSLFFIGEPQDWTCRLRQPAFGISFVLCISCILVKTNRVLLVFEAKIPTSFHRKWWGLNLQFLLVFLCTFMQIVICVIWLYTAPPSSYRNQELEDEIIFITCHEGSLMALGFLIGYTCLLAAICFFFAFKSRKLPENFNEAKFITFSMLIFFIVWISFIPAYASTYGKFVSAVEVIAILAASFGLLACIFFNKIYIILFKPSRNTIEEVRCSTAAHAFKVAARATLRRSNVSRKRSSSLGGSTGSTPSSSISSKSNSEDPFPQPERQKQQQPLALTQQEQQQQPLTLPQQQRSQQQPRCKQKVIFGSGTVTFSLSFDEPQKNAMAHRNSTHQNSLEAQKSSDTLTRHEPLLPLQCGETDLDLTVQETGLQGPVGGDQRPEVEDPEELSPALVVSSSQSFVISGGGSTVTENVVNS

T2: human calcium receptor (Homo sapiens, UniProt P41180)
T2 construct: expressed in transfected cells; host or cells: Xenopus laevis oocytes injected with cRNA
T2 sequence (P41180 20-1078): T1 sequence (looked up)


Biological target: T1, human calcium receptor
Assay: cell-based or functional assay
Details: not given

| Molecule | EC50, calcium imaging (Calcium 3 assay kit, FLEXSTATION) in HEK 293 cells expressing human CaSR |
| --- | --- |
| [γGlu]-[Tle]-{LacA″} [γ-Glu-t-Leu-LacA] | 38 nM |
| [γGlu]-Val-GlyA [γ-Glu-Val-GlyA] | 140 nM |
| [γGlu]-[Abu]-{LacA″} [γ-Glu-Abu-LacA] | 102 nM |
| [γGlu]-Val-LacA [γ-Glu-Val-LacA] | 57 nM |
| [γGlu]-[Tle]-{GlyA″} [γ-Glu-t-Leu-GlyA] | 50 nM |

Tested on: rat large intestine loop
Assay: Fluid absorption in rat large intestine loop method (PGE2-stimulated)
Type: in vivo, rats
Details: injected into loop 30 minutes after PGE2 i.p.; measured after 1 hour
Procedure: The cecum and large intestine were extirpated from the abdomen of each of male SD (IGS) rats under pentobarbital anesthesia, and the site 5 cm away from the area just under the cecum was ligated to form a large intestine loop Immediately after the loop had been formed, PGE2 (4 μg/ml/kg, SIGMA) was intraperitoneally administered, and after 30 minutes, a medicament, which had been dissolved in 2 ml of Tyrode's solution (NaCl: 136.9 mM, KCl: 2.7 mM, CaCl2.2H2O: 1.8 mM, MgCl2.6H2O: 1.04 mM, NaH2PO4.2H2O: 0.04 mM, NaH2PO4.2H2O: 0.04 mM, glucose: 5.55 mM, NaHCO3: 11.9 mM), was injected into the prepared loop (the medicament solution was adjusted so that the pH would be 6.5 to 7.5). As a control, Tyrode's solution free of any medicament (vehicle) was administered. After 1 hour, the loop weight, the loop weight after solution removal, and the loop area were measured to calculate a solution weight per unit area remaining in the loop.
The remaining solution amount per unit area was calculated with the following equation:
Remaining solution amount per unit area(g/cm^2)=(Loop weight−Loop weight after solution removal)/Loop area.
The fluid absorption was evaluated by calculating an inhibitory rate from the following equation:
Inhibitory rate(%)=100−(Remaining solution amount per unit area under drug administration−Remaining solution amount per unit area in base(average))/(Remaining solution amount per unit area under vehicle administration(average)−Remaining solution amount per unit area in base(average))×100.
(Base=case where no stimulation is given (no treatment with PGE2))

| Molecule | fluid absorption (inhibitory rate from remaining solution amount per unit area) |
| --- | --- |
| CC(C)(C)[C@H](NC(=O)CC[C@H](N)C(=O)O)C(=O)NCC(=O)O [γ-Glu-t-Leu-Gly] (γGlu-[Tle]-Gly-OH) | promoted fluid absorption |

Biological target: T2, human calcium receptor
Assay: Ca ion concentration-dependent Cl ionic current measurement in Xenopus laevis oocytes expressing the calcium receptor
Type: cell-based
Details: D-amino acid added at 10 mM; oocytes clamped at -70 mV
Procedure: For evaluation of the calcium receptor-activating action, a Ca ion concentration-dependent Cl ionic current measuring method using a Xenopus laevis oocyte expression system was used. If each activator is added to Xenopus laevis oocytes expressing the calcium receptor, intracellular Ca ions increase. Then, the Ca ion concentration-dependent Cl channel opens, and the intracellular current value changes as an ionic current. By measuring the change in the intracellular current value, whether the calcium receptor-activating action is present or not can be determined.
Specifically, the abdomen of Xenopus laevis was opened, and an egg batch was taken out and then treated with a 1% collagenase solution at 20° C. for 2 hours to obtain individual oocytes. Into the oocytes, 50 nl of 1 μg/μl receptor cRNA or 50 nl of sterilized water per oocyte were injected by using a micro glass capillary, and the oocytes were cultured at 18° C. for 2 to 3 days. For the culture, a solution obtained by adding 2 mM pyruvic acid, 10 U/ml penicillin, and 10 μg/ml streptomycin to the solution in Example 2 was used. After the culture, a test solution was added to the oocytes injected with cRNA or sterilized water. Electrophysiological measurement was performed by using an amplifier Geneclamp 500 (manufactured by Axon) and recording software AxoScope 9.0 (manufactured by Axon). The oocytes were membrane potential-clamped at −70 mV by the double electrode potential clamp method, and the intracellular current was measured via the Ca ion concentration-dependent Cl ion channel. The maximum value of the intracellular current was defined as the response current value. […]
The calcium receptor-activating action of L-amino acids was evaluated by using the method described in Example 13. That is, oocytes injected with cRNA of the calcium receptor or sterilized water were prepared, and membrane potential-clamped at −70 mV by the double electrode potential clamp method. To the potential-clamped oocytes, alanine (10 mM), arginine (10 mM), asparagine (10 mM), aspartic acid (10 mM), cysteine (10 mM), glutamine (10 mM), glutamic acid (10 mM), glycine (10 mM), histidine (10 mM), isoleucine (10 mM), leucine (10 mM), lysine (10 mM), methionine (10 mM), phenylalanine (10 mM), proline (10 mM), serine (10 mM), threonine (10 mM), tryptophan (10 mM), tyrosine (10 mM), valine (10 mM), ornithine (10 mM), taurine (10 mM), or hydroxyproline (10 mM) was added, and Ca ion concentration-dependent Cl response current was measured. […] As for the above-described amino acids, the activating action is reported in Proc. Natl. Acad. Sci. USA, Apr. 25, 2000, 97(9): 4814-9.
The calcium receptor-activating action of D-cysteine was evaluated by using the method described in Example 13. That is, oocytes injected with cRNA of the calcium receptor or sterilized water were prepared, and membrane potential-clamped at −70 mV by the double electrode potential clamp method. To the potential-clamped oocytes, D-cysteine (10 mM), L-cysteine (10 mM), D-tryptophan (10 mM), or L-tryptophan (10 mM) was added, and Ca ion concentration-dependent Cl response current was measured.
The calcium receptor-activating action of a peptide was evaluated by using the method described in Example 13. That is, oocytes injected with cRNA of the calcium receptor or sterilized water were prepared, and membrane potential-clamped at −70 mV by the double electrode potential clamp method.

| Molecule | calcium receptor-activating action (Ca ion concentration-dependent Cl response current) |
| --- | --- |
| N[C@H](CS)C(=O)O [D-cysteine, reference compound] | definite calcium receptor-activating action |

Same assay, conditions: L-amino acid added at 10 mM; oocytes clamped at -70 mV

| Molecule | calcium receptor-activating action (Ca ion concentration-dependent Cl response current) |
| --- | --- |
| N[C@@H](CS)C(=O)O [cysteine, reference compound] | definite calcium receptor-activating action |
| N[C@@H](Cc1c[nH]cn1)C(=O)O [histidine, reference compound] | definite calcium receptor-activating action |
| N[C@@H](Cc1ccccc1)C(=O)O [phenylalanine, reference compound] | definite calcium receptor-activating action |
| N[C@@H](Cc1c[nH]c2ccccc12)C(=O)O [tryptophan, reference compound] | definite calcium receptor-activating action |
| N[C@@H](Cc1ccc(O)cc1)C(=O)O [tyrosine, reference compound] | definite calcium receptor-activating action |

Same assay, conditions: peptide added at 50 μM

| Molecule | calcium receptor-activating action (Ca ion concentration-dependent Cl response current) |
| --- | --- |
| N[C@@H](CCC(=O)N[C@@H](CSN=O)C(=O)NCC(=O)O)C(=O)O [γ-Glu-Cys(SNO)-Gly] | definite calcium receptor-activating action |

Same assay, conditions: peptide added at 500 μM

| Molecule | calcium receptor-activating action (Ca ion concentration-dependent Cl response current) |
| --- | --- |
| γ-Glu-Orn ([γGlu]-[Orn]) | definite calcium receptor-activating action |

Same assay, conditions: peptide added at 1,000, 300, 100, 30, 10, 3, 1, 0.3 and 0.1 μM

| Molecule | Activity (lowest concentration at which current was detected) |
| --- | --- |
| γ-Glu-Abu-Gly ([γGlu]-[Abu]-Gly) | 3 µM |
| γ-Glu-Cys(S-Me)-Gly ([γGlu]-[Cys(S-Me)]-Gly) | 3 µM |
| γ-Glu-Cys(S-allyl)-Gly ([γGlu]-[Cys(S-allyl)]-Gly) | 100 µM |
| γ-Glu-Gly-Gly ([γGlu]-Gly-Gly) | 30 µM |
| γ-Glu-Ser-Gly ([γGlu]-Ser-Gly) | 30 µM |
| γ-Glu-Tau ([γGlu]-[Tau]) | 300 µM |
| γ-Glu-Val-Arg ([γGlu]-Val-Arg) | 1,000 μM |
| γ-Glu-Val-Asn ([γGlu]-Val-Asn) | 30 µM |
| γ-Glu-Val-Asp | 1,000 μM |
| γ-Glu-Val-Cys ([γGlu]-Val-Cys) | 10 µM |
| γ-Glu-Val-Gln ([γGlu]-Val-Gln) | 10 µM |
| γ-Glu-Val-Glu ([γGlu]-Val-Glu) | 1,000 μM |
| γ-Glu-Val-His ([γGlu]-Val-His) | 100 µM |
| γ-Glu-Val-Lys ([γGlu]-Val-Lys) | 1,000 μM |
| γ-Glu-Val-Met ([γGlu]-Val-Met) | 1,000 μM |
| γ-Glu-Val-Orn ([γGlu]-Val-[Orn]) | 100 µM |
| γ-Glu-Val-Phe ([γGlu]-Val-Phe) | 30 µM |
| γ-Glu-Val-Pro ([γGlu]-Val-Pro) | 30 µM |
| γ-Glu-Val-Ser ([γGlu]-Val-Ser) | 30 µM |
| γ-Glu-Val-Thr ([γGlu]-Val-Thr) | 1,000 μM |
| γ-Glu-Val-Val ([γGlu]-Val-Val) | 1,000 μM |
| γ-Glu-t-Leu ([γGlu]-[Tle]) | 100 µM |
| γ-Glu-γ-Glu-Val ([γGlu]-[γGlu]-Val) | 1,000 μM |
